Test results as given in patent publication US20250042994A1 (HAINAN SIMCERE ZAIMING PHARMACEUTICAL, published 2025).

T1: Human CD19-his protein (human, UniProt P15391 20-291)
T1 construct: bought protein; also called recombinant human CD19-His; CD19 full-length protein; not shown: His tag
T1 sequence (looked up): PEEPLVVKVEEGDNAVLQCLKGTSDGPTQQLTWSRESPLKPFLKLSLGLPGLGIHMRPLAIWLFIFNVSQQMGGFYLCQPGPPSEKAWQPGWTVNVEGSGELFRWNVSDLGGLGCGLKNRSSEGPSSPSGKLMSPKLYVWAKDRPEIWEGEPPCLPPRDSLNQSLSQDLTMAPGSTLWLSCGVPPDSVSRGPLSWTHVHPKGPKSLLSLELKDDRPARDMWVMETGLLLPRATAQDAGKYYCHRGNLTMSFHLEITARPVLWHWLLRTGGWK

T2: human CD19 on Raji cells (human, UniProt P15391 20-556)
T2 construct: whole, on cells
T2 sequence (looked up): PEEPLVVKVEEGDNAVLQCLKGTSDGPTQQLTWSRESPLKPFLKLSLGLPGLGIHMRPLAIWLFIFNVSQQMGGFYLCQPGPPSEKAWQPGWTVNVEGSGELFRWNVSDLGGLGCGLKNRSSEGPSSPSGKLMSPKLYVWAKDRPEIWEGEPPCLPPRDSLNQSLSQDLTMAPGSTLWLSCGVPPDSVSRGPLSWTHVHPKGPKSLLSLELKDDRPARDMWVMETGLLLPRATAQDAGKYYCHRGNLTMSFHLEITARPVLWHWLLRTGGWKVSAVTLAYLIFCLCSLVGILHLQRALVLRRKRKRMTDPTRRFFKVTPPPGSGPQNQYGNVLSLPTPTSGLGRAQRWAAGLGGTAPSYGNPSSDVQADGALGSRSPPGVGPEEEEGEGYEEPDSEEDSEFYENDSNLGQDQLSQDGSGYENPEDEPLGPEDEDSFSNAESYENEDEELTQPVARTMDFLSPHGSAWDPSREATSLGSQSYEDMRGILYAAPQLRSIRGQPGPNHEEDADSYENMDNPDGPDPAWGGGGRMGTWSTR

T3: human CD19 exon1-3-His tag protein (human, UniProt P15391 20-186, limits assumed)
T3 construct: membrane-distal part of the extracellular region, made in HEK293E cells; not shown: His tag
T3 sequence (looked up): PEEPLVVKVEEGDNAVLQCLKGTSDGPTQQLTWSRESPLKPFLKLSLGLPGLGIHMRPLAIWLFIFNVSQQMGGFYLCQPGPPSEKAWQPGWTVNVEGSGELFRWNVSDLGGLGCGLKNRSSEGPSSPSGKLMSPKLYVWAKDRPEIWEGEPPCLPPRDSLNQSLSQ

T4: human CD19 on CHO-K1-human CD19 cells (human, UniProt P15391 20-556)
T4 construct: whole, on cells; also called CHO-K1-human CD19-2C8
T4 sequence (looked up): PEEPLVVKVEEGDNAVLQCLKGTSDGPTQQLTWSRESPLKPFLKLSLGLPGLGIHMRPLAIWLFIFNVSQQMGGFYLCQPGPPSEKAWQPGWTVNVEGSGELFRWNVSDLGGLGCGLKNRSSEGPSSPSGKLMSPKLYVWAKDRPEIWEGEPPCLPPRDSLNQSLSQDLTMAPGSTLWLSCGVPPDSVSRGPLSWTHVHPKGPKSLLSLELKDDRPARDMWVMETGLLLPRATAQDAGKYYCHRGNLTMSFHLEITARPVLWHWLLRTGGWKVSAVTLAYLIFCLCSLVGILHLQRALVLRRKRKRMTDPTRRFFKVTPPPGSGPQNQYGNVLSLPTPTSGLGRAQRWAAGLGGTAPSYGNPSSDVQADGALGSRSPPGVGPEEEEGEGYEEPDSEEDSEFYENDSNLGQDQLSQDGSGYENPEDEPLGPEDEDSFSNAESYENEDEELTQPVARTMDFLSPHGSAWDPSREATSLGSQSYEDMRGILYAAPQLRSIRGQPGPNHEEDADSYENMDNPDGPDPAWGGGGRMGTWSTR

B1: F3.121.4-L3H2 (antibody, mouse IgG1, kappa, V domains shown)
VH: EVQLVQSGAEVKKPGASVKVSCKASGYTFTNYWMHWVRQAPGQGLEWMGEIDPSDNYANYNQEFQGRVTITVDKSASTAYMELSSLRSEDTAVYYCARHDGYFGALDYWGQGTTVTVSS
VL: EIVLTQSPDFQSVTPKEKVTITCSASSSISSNYLHWYQQKPDQSPKFLIYRTSNLASGVPSRFSGSGSGTDFTLTINSLEAEDAATYYCQQASSIPRMFTFGQGTKLEIKR
notes: humanized antibody of F3.121.4, VL3+VH2, murine IgG1 constant regions
B2: F3.121.4-L3H3 (antibody, mouse IgG1, kappa)
heavy: EVQLVQSGAEVKKPGASVKVSCKASGYTFTNYWMHWVRQRPGQGLEWMGEIDPSDNYANYNQEFQGRVTITVDKSASTAYMELSSLRSEDTAVYYCARHDGYFGALDYWGQGTTVTVSSAKTTPPSVYPLAPGSAAQTNSMVTLGCLVKGYFPEPVTVTWNSGSLSSGVHTFPAVLQSDLYTLSSSVTVPSSTWPSETVTCNVAHPASSTKVDKKIVPRDCGCKPCICTVPEVSSVFIFPPKPKDVLTITLTPKVTCVVVDISKDDPEVQFSWFVDDVEVHTAQTQPREEQFNSTFRSVSELPIMHQDWLNGKEFKCRVNSAAFPAPIEKTISKTKGRPKAPQVYTIPPPKEQMAKDKVSLTCMITDFFPEDITVEWQWNGQPAENYKNTQPIMDTDGSYFVYSKLNVQKSNWEAGNTFTCSVLHEGLHNHHTEKSLSHSPGK
light: EIVLTQSPDFQSVTPKEKVTITCSASSSISSNYLHWYQQKPDQSPKFLIYRTSNLASGVPSRFSGSGSGTDFTLTINSLEAEDAATYYCQQASSIPRMFTFGQGTKLEIKRADAAPTVSIFPPSSEQLTSGGASVVCFLNNFYPKDINVKWKIDGSERQNGVLNSWTDQDSKDSTYSMSSTLTLTKDEYERHNSYTCEATHKTSTSPIVKSFNRNEC
notes: humanized antibody of F3.121.4, VL3+VH3, murine IgG1 constant regions
B3: F3.121.4-L3H4 (antibody, mouse IgG1, kappa)
heavy: EVQLQQSGAEVKKPGASVKVSCKASGYTFTNYWMHWVRQRPGQGLEWMGEIDPSDNYANYNQEFQGRVTITVDKSASTAYMELSSLRSEDTAVYYCARHDGYFGALDYWGQGTTVTVSSAKTTPPSVYPLAPGSAAQTNSMVTLGCLVKGYFPEPVTVTWNSGSLSSGVHTFPAVLQSDLYTLSSSVTVPSSTWPSETVTCNVAHPASSTKVDKKIVPRDCGCKPCICTVPEVSSVFIFPPKPKDVLTITLTPKVTCVVVDISKDDPEVQFSWFVDDVEVHTAQTQPREEQFNSTFRSVSELPIMHQDWLNGKEFKCRVNSAAFPAPIEKTISKTKGRPKAPQVYTIPPPKEQMAKDKVSLTCMITDFFPEDITVEWQWNGQPAENYKNTQPIMDTDGSYFVYSKLNVQKSNWEAGNTFTCSVLHEGLHNHHTEKSLSHSPGK
light: EIVLTQSPDFQSVTPKEKVTITCSASSSISSNYLHWYQQKPDQSPKFLIYRTSNLASGVPSRFSGSGSGTDFTLTINSLEAEDAATYYCQQASSIPRMFTFGQGTKLEIKRADAAPTVSIFPPSSEQLTSGGASVVCFLNNFYPKDINVKWKIDGSERQNGVLNSWTDQDSKDSTYSMSSTLTLTKDEYERHNSYTCEATHKTSTSPIVKSFNRNEC
notes: humanized antibody of F3.121.4, VL3+VH4, murine IgG1 constant regions

Columns and labels:
Human CD19-his protein [1] = molecular target: T1, Human CD19-his protein; assay: SPR Biacore, method of example 7.1, human CD19-His
Method: A sample buffer and a running buffer were HBS-EP+ (10 mM HEPES, 150 mM NaCl, 3 mM EDTA and 0.05% surfactant P20) (GE Healthcare; BR-1006-69). The flow-through cell was set to 25° C. The sample block was set to 16° C. Both were pretreated with the running buffer. In each cycle, an antibody to be detected was first captured with a Protein A chip, and then a single concentration of CD19 antigen protein was injected. The binding and dissociation processes of the antibody and the antigen protein were recorded, and finally Glycine pH 1.5 (GE Healthcare; BR-1003-54) was used to complete chip regeneration. The binding was measured by injecting different concentrations of recombinant human CD19-His proteins in a solution for 240 s with a flow rate of 30 μl/min. The concentration started from 200 nM (see the detailed results for the actual concentration in the test) and was diluted at 1:1, making a total of 5 concentrations. The dissociation phase was monitored for up to 600 s and was triggered by switching from sample solution to running buffer. The surface was regenerated by washing with a 10 mM glycine solution (pH 1.5) for 30 s at a flow rate of 30 μl/min. Bulk refractive index difference was corrected by subtracting the response obtained from the goat anti-human Fc surface. Blank injection was also subtracted (=double reference). For calculation of apparent KD and other kinetic parameters, Langmuir 1:1 model was used.
SPR (biacore) detection and data analysis were performed according to the method in example 7.1.

human CD19 on Raji cells = molecular target: T2, human CD19 on Raji cells; assay: FACS on Raji cells
Method: (§1) After the digestion was terminated, the cells were washed 2 times with a PBS buffer; and for suspension cell Raji, the supernatant of the medium was discarded by directly centrifugation, and the cell pellet was washed 2 times with PBS. After counting the cells in the previous step, the cell pellet was resuspended with [PBS+2% (w/w) BSA] blocking solution to 2×10⁶ cells/ml, and added to a 96-well FACS reaction plate at 50 μl/well, and then the sample to be tested was added at 50 μl/well, and incubated on ice for 2 h. The obtained mixture was centrifuged and washed 3 times with a PBS buffer. […] The obtained mixture was centrifuged and washed 5 times with a PBS buffer, and FACS (FACS Canto™, purchased from BD Company) was used for detection and result analysis. Data analysis was performed by software (FlowJo) to obtain the mean fluorescence intensity (MFI) of the cells. And then software (GraphPad Prism8) was used for analysis, data fitting, and EC50 value calculation. […] The same method was used to detect the binding of the chimeric antibodies to endogenous CD19-negative cells, MoLT4 cells (purchased from ATCC, CRL-1582), and CHO-K1 cells.

[2] = molecular target: T3, human CD19 exon1-3-His tag protein; assay: ELISA, coated human CD19 exon 1-3-His
Human CD19-his protein [3] = molecular target: T1, Human CD19-his protein; assay: ELISA, coated human CD19-His
Method: Human CD19-his protein (purchased from ACROBiosystems, catalog number: CD9-H52H2) was diluted with PBS to a final concentration of 4 μg/mL, and then added to a 96-well ELISA plate at 100 μl/well. The plate was sealed with a plastic film and incubated overnight at 4° C., the plate was washed 2 times with PBS the next day, and then a blocking solution [PBS+2% (w/w) BSA] was added for blocking at room temperature for 2 h. The blocking solution was poured off, and 100 nM gradiently diluted CD19 chimeric antibody or control antibody was added at 50 μl/well. After incubation at 37° C. for 2 h, the plate was washed 3 times with PBS. […] TMB substrate was added at 50 μl/well, and incubated at room temperature for 10 min, and then a stop solution (1.0 N HCl) was added at 50 μl/well. The OD450 nm values were read by an ELISA microplate reader (Multimode Plate Reader, EnSight, purchased from Perkin Elmer).

Human CD19-his protein [4] = molecular target: T1, Human CD19-his protein; assay: ELISA on coated human CD19-His
[5] = molecular target: T4, human CD19 on CHO-K1-human CD19 cells; assay: FACS on CHO-K1-human CD19 cells
Method: as §1

Row | Binder | Kd (Human CD19-his protein [1]) [pM] | koff (Human CD19-his protein [1]) [s⁻¹] | kon (Human CD19-his protein [1]) [M⁻¹ s⁻¹] | EC50 (human CD19 on Raji cells) [pM] | Maximum mean fluorescence intensity (human CD19 on Raji cells) [MFI] | OD450 at 0.0001 nM [2] [OD450] | OD450 at 0.001 nM [2] [OD450] | OD450 at 0.01 nM [2] [OD450] | OD450 at 0.10 nM [2] [OD450] | OD450 at 1.00 nM [2] [OD450] | OD450 at 10 nM [2] [OD450] | OD450 at 100 nM [2] [OD450] | OD450 at 0.0001 nM (Human CD19-his protein [3]) [OD450] | OD450 at 0.001 nM (Human CD19-his protein [3]) [OD450] | OD450 at 0.01 nM (Human CD19-his protein [3]) [OD450] | OD450 at 0.10 nM (Human CD19-his protein [3]) [OD450] | OD450 at 1.00 nM (Human CD19-his protein [3]) [OD450] | OD450 at 10 nM (Human CD19-his protein [3]) [OD450] | OD450 at 100 nM (Human CD19-his protein [3]) [OD450] | EC50 (read off the curve) (Human CD19-his protein [4]) [pM] | further results
1 | B1 | 0.0498 | 5.65e-09 | 113000 | 420 | 32200 | 0.05 | 0.05 | 0.05 | 0.05 | 0.05 | 0.05 | 0.12 | 0.1 | 0.14 | 0.42 | 1.6 | 2.36 | 2.3 | 2.28 | ~50 | EC50 [5]: 1080 pM; Maximum mean fluorescence intensity [5]: 52100 MFI
2 | B2 | 8.8 | 1.04e-06 | 118000 | 450 | 32200 | 0.05 | 0.05 | 0.05 | 0.05 | 0.05 | 0.05 | 0.08 | 0.1 | 0.15 | 0.43 | 1.65 | 2.28 | 2.22 | 2.19 | ~50 | EC50 [5]: 1160 pM; Maximum mean fluorescence intensity [5]: 51800 MFI
3 | B3 | 225 | 2.51e-05 | 112000 | 430 | 32500 | 0.06 | 0.06 | 0.06 | 0.06 | 0.06 | 0.07 | 0.11 | 0.11 | 0.16 | 0.51 | 1.68 | 2.31 | 2.26 | 2.31 | ~50 | EC50 [5]: 1050 pM; Maximum mean fluorescence intensity [5]: 50500 MFI
